Experimental data published in patent US20060193771A1.

Key:
[1] = biological target: T1, recombinant soluble CD30 (sCD30) produced in E. coli (human); experiment: indirect ELISA, sCD30 coated
T1 sequence: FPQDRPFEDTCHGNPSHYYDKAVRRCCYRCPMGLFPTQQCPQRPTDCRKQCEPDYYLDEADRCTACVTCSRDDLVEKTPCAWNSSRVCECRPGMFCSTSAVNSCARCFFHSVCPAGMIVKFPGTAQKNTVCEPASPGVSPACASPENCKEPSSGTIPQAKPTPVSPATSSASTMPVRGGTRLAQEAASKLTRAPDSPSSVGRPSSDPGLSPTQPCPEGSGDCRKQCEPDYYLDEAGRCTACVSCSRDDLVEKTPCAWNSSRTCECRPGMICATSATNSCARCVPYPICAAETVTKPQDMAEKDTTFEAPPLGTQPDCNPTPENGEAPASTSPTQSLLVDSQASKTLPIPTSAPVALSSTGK

CD30-Fc (human) = biological target: T2, CD30-Fc (human); experiment: affinity of the MAb; ELISA using CD30-Fc
T2 sequence: T1 sequence

[2] = biological target: human CD30, native, expressed on cells (human); experiment: FACS, L428 cells, MAb 5 µg/ml; HeFi-I is the control itself
[3] = biological target: human CD30, native, expressed on cells (human); experiment: FACS, L540 cells, MAb 5 µg/ml; HeFi-I is the control itself
[4] = biological target: T1, recombinant soluble CD30 (sCD30) produced in E. coli (human); experiment: SPR (BIAcore), sCD30 immobilized; not corrected for bivalency
[5] = biological target: human CD30, native, expressed on cells (human); experiment: competitive FACS on L540 cells, unlabeled MAb 2.5 µg/ml; competitor: biotin-T6
[6] = biological target: human CD30, native, expressed on cells (human); experiment: competitive FACS on L540 cells, unlabeled MAb 2.5 µg/ml; competitor: biotin-T14
[7] = biological target: human CD30, native, expressed on cells (human); experiment: competitive FACS on L540 cells, unlabeled MAb 2.5 µg/ml; competitor: biotin-T24
[8] = biological target: human CD30, native, expressed on cells (human); experiment: competitive FACS on L540 cells, unlabeled MAb 2.5 µg/ml; competitor: biotin-T25
[9] = biological target: human CD30, native, expressed on cells (human); experiment: competitive FACS on L540 cells, unlabeled MAb 2.5 µg/ml; competitor: biotin-HRS-4
[10] = biological target: human CD30, native, expressed on cells (human); experiment: competitive FACS on L540 cells, unlabeled MAb 2.5 µg/ml; competitor: biotin-HeFi-I
[11] = biological target: human CD30, native, expressed on cells (human); experiment: cell-based or functional assay
[12] = biological target: T1, recombinant soluble CD30 (sCD30) produced in E. coli (human); experiment: SPR (BIAcore), sCD30 immobilized

B1: HeFi-I MAb (antibody, V domains shown)
VH: EVKLVESGGGLVQPGGSLRLSCATSGFTFSDYYMNWVRQPPGKALEWLGFIRNKANGYTTEFSASVMGRFTISRDDSQSILYLQMNTLRAEDSATYYCARDPPYGNPHYYAMDYWGQGTSVTVSS
VL: DIVLTQSPASLAVSLGQRATISCRASKSVSASGYNYMHWYQQKAGQPPKLLIHLASNLESGVPARFSGSGSGTDFTLNIHPVEEEDASTYYCQHSGELPFTFGSGTKLEIK
- titer in ELISA [1]: 105 mL/µg
- Kd (CD30-Fc (human)): 2.4 nM
- relative reactivity in FACS (% of control) [2]: 100 % of control
- relative reactivity in FACS (% of control) [3]: 100 % of control
- Kd [4]: 7.8 nM
- koff [4]: 0.00054 s⁻¹
- kon [4]: 72000 M⁻¹ s⁻¹
- inhibition of the binding of biotin-MAb (%) [5]: 0%
- inhibition of the binding of biotin-MAb (%) [6]: 0%
- inhibition of the binding of biotin-MAb (%) [7]: 33.4%
- inhibition of the binding of biotin-MAb (%) [8]: 8.4%
- inhibition of the binding of biotin-MAb (%) [9]: 0%
- inhibition of the binding of biotin-MAb (%) [10]: 98%

B2: T7 MAb (antibody, V domains shown)
VH: QVQLQQSGAELVRPGSSVKISCKASGYTFSSYWMNWMKQRPGQGLEWIGQIYPGDDDTNYNGKFKGKATLTADKSSSTAYMQLSSLTSEDSAVYFCARRETGRGAWFTYWGQGTLVTVSA
VL: DIVLTQSPASLAVSLGQRATISCRASESLEYYGTTLMQWYQQKPGQPPKLLIYAASNVESGVPARFSGSGSGTDFSLNIHPVEEDDIAMYFCHQSRKVPSTFGGGTKLEIK
- Kd (CD30-Fc (human)): 3.5 nM

B3: CL2(scFv)-PE38 (scFv, V domains shown)
VH: EVQLKQSGTELVKPGASVKLSCKASGYTFTSYWMHWVKQRPGQGLEWIGNINPSNGGTNYNEKFKSKATLTIDKSSSTAYMQLSSLTSEDSAVYYCARRTETAQASPFAYWGQGTLVTVSS
VL: DIVMTQSHKFMSTSVGDRVSVTCKASQNVGTNVAWYQQKPGQSPKALIYSASTRYSGVPDRFTGSGSGTDFTLTISNVQSEDLAEYFCQQYNSYPFTFGSGTKLEIK
- IC50, cytotoxicity on A431 cells stably transfected with CD30 [11]: 2.5 ng/mL
- Kd [12]: 56 nM
- koff [12]: 0.0022 s⁻¹
- kon [12]: 38000 M⁻¹ s⁻¹
